In one series the test system is T24 lung metastases. As to conditions: mouse, in vivo.
A short description of series [1]: in vivo. Also noted: species or system nude mice. To be noted: nude, mouse. On the procedure: Peptides may be radiolabeled with ^18F or ^64Cu for in vitro and in vivo PET imaging evaluations. The peptides may be prepared using standard F-moc chemistry on an automated peptide synthesizer. Pharmacokinetic parameters of ^64Cu-labeled R11, the lead peptide, were evaluated by the inventors in preliminary experiments by using a two-compartment model. […] However, due to the unknown mechanism of the peptide specificity, it is reasonable to assume that a longer circulation time in the blood is preferable to enhance the image contrast. […]
The tissue distribution of the radiolabeled peptides or peptide conjugates may be evaluated in normal nude mice. […] At selected time points post-injection, animals may be sacrificed, and organs of interest removed, weighed, and counted. The percent injected dose per gram (% ID/g) and percent injected dose per organ (% ID/organ) can be calculated by comparison to a weighed, counted, standard. […] Specifically, blood (10-20-μL) can be drawn from the retroorbital sinus of the animals at 5-min, 10-min, 20-min, and 40-min, and counted on a gamma counter.
The pharmacokinetics of the ^64Cu-labeled peptide was also evaluated by using a two-compartment model. […]

The nature of series [2]: in vivo. Set-up: species or system nude mice. To be noted: nude, mouse. From the text:
The lungs were removed from both mice. […] The harvested lungs were imaged by microPET again.
This is another data set of the same source.

The nature of series [3]: in vivo. As to conditions: nude, mouse, iv, uptake of control lungs.
Experimental: (§1) The tumor-bearing animal model was established by injecting into the left flank of each nude mouse subcutaneously with human T24 cell suspension (2×10^6 cells in 100-μL of medium). The tumors were allowed to grow for 42 days prior to PET imaging. […] The microPET imaging studies were performed using the microPETR4 rodent scanner (Concorde Microsystems, Knoxville, Tenn.). The scanner provides a 10×8 cm field of view, and the scanner is currently capable of an axial and transaxial resolution of 2 mm, with an absolute sensitivity of 900 counts per second per μCi. Images were reconstructed using Fourier rebinning followed by two-dimensional filtered back projection. […] At 15 min, 60 min, and 4 hr post injection (p.i.), the mice were anesthetized and immobilized in a supine position on a support bed with attached anesthetic gas nose cones for data collection. The imaging collection time was 10 min.
(§2) After the 4-hr microPET imaging, the animals were sacrificed. The lungs were removed from both mice. […] The harvested lungs were imaged by microPET again.
Series [4] is described as follows: biodistribution of ^64Cu-DOTA-R11 in normal nude mice. Type of series: in vivo. As to conditions: 5-10 μCi; % ID/g. On the procedure: FIG. 6—Biodistribution data of ^64Cu-DOTA-R11 in normal nude mice (n=4). Data are presented as % ID/g±s.d. SV: seminal vesicle; CG: coagulation gland.
The injected dose of ^64Cu-DOTA-R11 in the biodistribution studies was in range of 5-10 μCi. The animals were sacrificed at specific time points (n=4 at each time point). Organs of interest were removed, weighed, and counted. Standards were prepared and counted along with the samples to calculate the percent injected dose per gram tissue (% ID/g).
In order to explore the application of R11 for the detection of bladder cancer metastasis via PET, the inventors conjugated this peptide with a bifunctional chelator, DOTA (1,4,7,10-tetraazacyclododecane-1,4,7,10-tetraacetic acid), so that R11 could be radiolabeled with ^64Cu. […] The radiolabeled peptide was purified via a C-18 cartridge (Millipore) to have >95% radiochemical purity as determined by radio-TLC and HPLC prior to the biodistribution and PET imaging studies. […] Organs of interest were removed, weighed, and counted. Standards were prepared and counted along with the samples to calculate the percent injected dose per gram tissue (% ID/g). […] In addition, the pharmacokinetics of the ^64Cu-labeled peptide was also evaluated by using a two-compartment model.

“Also recorded” adds a separate entry of the source.

Experimental for T24 lung metastases: as §1, §2

A word on the half-life: it is the time in which the quantity being followed falls by half. Broadly, the tissue uptake is the share of the injected amount in each gram of the tissue. Lower therefore signals low uptake. Regarding `N=C(N)NCCCC(NC(=O)C(CCCNC(=N)N)NC(=O)C(CCCNC(=N)N)NC(=O)C(CCCNC(=N)N)NC(=O)C(CCCNC(=N)N)NC(=O)C(CCCNC(=N)N)NC(=O)C(CCCNC(=N)N)NC(=O)C(CCCNC(=N)N)NC(=O)C(CCCNC(=N)N)NC(=O)C(CCCNC(=N)N)NC(=O)C(CCCNC(=N)N)NC(=O)CNC(=O)CN1CCN(CC(=O)O)CCN(CC(=O)O)CCN(CC(=O)O)CC1)C(=O)O` (stereo not shown) [^64Cu-DOTA-R11, DOTA-G-RRRRRRRRRRR, metal not drawn], in the series on T24 lung metastases, the “ex vivo microPET and autoradiography of lungs with T24 metastases” value was “elevated uptake”. This molecule had a half-life in “in vivo [1]” (elimination half life from other organs (the secondary compartment)) of 17.2 h. The same molecule displayed a half-life in the series “in vivo [1]” (half-life in the blood (the primary compartment)) of approximately 0.178 h. Moreover, the tissue to tissue ratio in “in vivo [2]” is more than 8. In “in vivo [3]”, this molecule displayed a tissue uptake at 0.25 h of less than 4 %ID/g. Further, in series [4], the “accumulation in prostate and bladder” value was “strong tendency to accumulate in prostate and bladder”; the “uptake in other organs (blood, lungs, liver, spleen, kidneys, muscle)” value is listed as “remarkably low uptake in other organs; also recorded: remarkably low uptake by other organs”.
